Laboratory results: patent publication US20090274620A1 (WILEX, published 2009)

Target: G250 antigen (MN antigen), complete protein, aa 1-459 (UniProt Q16790 38-459)
Experiment: immunohistochemistry of G250-negative cells transiently transfected with the complete cDNA

binding result: binds
B1: monoclonal antibody G250 (murine, from hybridoma DSM ACC 2526) (antibody, IgG1, V domains shown)
VH: DVKLVESGGGLVKLGGSLKLSCAASGFTFSNYYMSWVRQTPEKRLELVAAINSDGGITYYLDTVKGRFTISRDNAKNTLYLQMSSLKSEDTALFYCARHRSGYFSMDYWGQGTSVTVSS
VL: DIVMTQSQRFMSTTVGDRVSITCKASQNVVSAVAWYQQKPGQSPKLLIYSASNRYTGVPDRFTGSGSGTDFTLTISNMQSEDLADFFCQQYSNYPWTFGGGTKLEIK
notes: also called MAbG250; MabG250
